From paper PMC8093899 (iScience, 2021)
Values belong to the binder of their own block, whether it stands above or below them.

What was measured:
[1] = biological target: full-length CD146, wild type, with a FLAG tag or a Myc tag (human, UniProt P43121); assay: co-IP
SEC = biological target: the molecule itself; assay: SEC

full-length CD146, wild type, with a FLAG tag or a Myc tag, sequence (P43121 24-646): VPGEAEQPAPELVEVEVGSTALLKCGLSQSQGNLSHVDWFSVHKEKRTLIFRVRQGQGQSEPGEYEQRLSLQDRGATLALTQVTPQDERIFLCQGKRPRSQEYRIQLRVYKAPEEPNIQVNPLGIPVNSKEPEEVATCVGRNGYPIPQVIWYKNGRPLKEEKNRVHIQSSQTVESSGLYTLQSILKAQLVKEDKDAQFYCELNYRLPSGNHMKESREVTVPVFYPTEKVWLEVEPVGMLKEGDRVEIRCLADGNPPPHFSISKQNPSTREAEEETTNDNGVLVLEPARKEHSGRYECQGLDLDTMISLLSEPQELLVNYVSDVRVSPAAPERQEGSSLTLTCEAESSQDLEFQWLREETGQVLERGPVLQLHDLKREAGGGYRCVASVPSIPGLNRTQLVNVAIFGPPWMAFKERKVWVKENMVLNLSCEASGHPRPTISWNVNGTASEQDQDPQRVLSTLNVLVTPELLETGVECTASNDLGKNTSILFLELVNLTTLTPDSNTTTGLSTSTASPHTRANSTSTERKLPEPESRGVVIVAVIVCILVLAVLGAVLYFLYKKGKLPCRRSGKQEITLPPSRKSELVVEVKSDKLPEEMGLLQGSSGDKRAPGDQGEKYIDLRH

- binding result [1]: binds
B1: HA98 (AA98 mAb mutant H13–112: heavy chain (I28K)/light chain (L51Y)) (antibody, V domains shown)
VH: EVQLLESGAELVRPGASVKLSCKTSGYKFTNYWIHWVKQRSGQGLEWIARIYPGTDITYYNEKFKGKATLTVDKSSSSAYMLLSSLKSEDSSVYFCARSGGYWYFDVWGAGTTVTVSS
VL: ELVMTQSPASLAVSLGQRATISCRASKSVSISGYSYMHWYQQKPGQPPKLYIYLASNLESGVPARFSGSGSGTDFTLNIHPVEEEDAATYYCQHSRELPYTFGGGTKLEIK

B2: human CD146 fragment containing domain 4 and domain 5 (D4-D5, Gln336 to Leu519) (domain or fragment, UniProt P43121 336-519, looked up)
chain: QELLVNYVSDVRVSPAAPERQEGSSLTLTCEAESSQDLEFQWLREETGQVLERGPVLQLHDLKREAGGGYRCVASVPSIPGLNRTQLVNVAIFGPPWMAFKERKVWVKENMVLNLSCEASGHPRPTISWNVNGTASEQDQDPQRVLSTLNVLVTPELLETGVECTASNDLGKNTSILFLELVNL
modifications: two N-glycosylation sites on D4 and D5 seen in the electron density map
- stoichiometry N (SEC): 2
